Test results as given in patent US6379959B1, “Metalocarboxypeptidase inhibitors and derived molecules used as antitumor agents” (Universitat Autonoma de Barcelona, priority 1996, dated 2002).
Positions of bridges follow the written chain, without caps; N, C: chain ends. No end group written: not given here.

Assays:
[1] = system: human pancreatic adenocarcinoma cell line Capan-1; assay: Cytotoxicity test with BCECF-AM and propydium iodure; type: cell-based; settings: PCI 10-75 μg/mL, 24 h
Source text: The cytotoxicity test is based on the use of two fluorophores, BCECF-AM and propydium iodure. The first one is employed to mark the viable cells because it quickly penetrates into the cellular cytoplasm where it is fragmented by the action of the esterases, becoming a fluorescent molecule. These esterases only being active when the cells are alive. Propydium iodine is a derivative of the phenanthrene which specifically joins the polynucleotide structure of nucleic acids intercalating between their pairs of bases. Due to its ionic structure it cannot penetrate into the live cells but it can do so into the dead ones, labeling DNA and RNA. […]
1. The absorbancy of the plate was read using cytofluor. The cytofluor is a fluorometer especially designed for reading the fluorescence of the cells; it is controlled by computer which makes it possible to employ various filter combinations of excitation-emission at the same time. […] These filters allow us to detect the fluorescence of the two reagents employed for the cytotoxicity test such as BCECF-AM and propydium iodide. This first reading corresponds to the self-fluorescence of the cells, which it will later be deducted from the final value of the fluorescence. […]
3. Afterwards, the absorbancy of the plate was read. This measure corresponds to the total fluorescence.
4. […] Thus, we eliminated the fluorescence that had not been incorporated by the cells. […]

[2] = system: cell line Capan-1; assay: Studies of PCI disappearance from the culture medium; type: cell-based, human; settings: 50 μg/mL flask, 24 h; CPA inhibitory activity and ELISA
Procedure: The studies of PCI disappearance were carried out in the cell line Capan-1 by employing various concentrations of PCI.
In three small culture flasks (of 25 cm^2), 5×10^5 cells were placed in each and they were cultivated in medium DMEM+10%FBS until the moment in which, through microscope observation, it could be seen that they had reached 75% of confluence. At this moment, the medium was removed and was substituted by new DMEM+10%FBS (50 μg/mL flask) and by medium with 200 μg/mL of PCI (flask 200 μg/mL). The three flasks were cultivated for a further 24 h. From each of these, samples of […] of culture medium were extracted at half hour intervals. In each of these samples, the existing concentration of PCI was determined by employing two methods (described in the bibliography cited in point 4.A.):
Tests of carboxypeptidase A inhibitory activity
In such tests, samples taken from the control flask at the same intervals were used as blanks.
One of the ELISAs that was done with the samples coming from the 200 μg/mL flask was carried out under special conditions in the first step (fixation of the antigens); concretely, by using a concentration of 0.5 M NaCl.

Q: With “PCI: potato carboxypeptidase inhibitor, isoform IIa, obtained by recombinant DNA techniques in E. coli (SEQ ID NO.2) (EQHADPICNKPCKTHDDCSGAWFCQACWNSARTCGPYVG; disulfide 12-27, 18-34, 8-24)” as the substance, how does the “cell death (propydium iodure fluorescence)” value [1] read?
A: No significant difference in relation to the control group

Q: What about the “viability of the cells (BCECF-AM fluorescence)” value [1] of the same substance?
A: no decrease of viability being observed

Q: And the “internalization (disappearance of PCI from the culture medium)” value [2]?
A: clearly internalized by the cells
